Experimental data: US11110115B2, “Nucleic acid molecule with anti-inflammatory and anti-coagulant and organ-protective properties” (APTAHEM AB, priority 2017, dated 2021)

Columns and labels:
[1] = Tail bleeding model (bleeding time); format: in vivo, Sprague-Dawley rats; settings: for group average bleeding time compared to matched vehicle group: SEQ ID NO:2 5, 20, 40 mg/kg i.v. 5 min before, Rivaroxaban 10 mg/kg PO 1 hour before, Warfarin 0.5 mg/kg IV
Description: A total of 36 Sprague-Dawley male and female rats were utilized and divided into six groups comprising of 6 animals per group. Animal handling was performed according to guidelines of the National Institute of Health and the Association for Assessment and Accreditation of Laboratory Animal Care. Animals were fed ad libitum a commercial rodent diet (Teklad Certified Global 18% Protein Diet cat #: 2018SC). Animals had free access to autoclaved and acidified drinking water (pH between 2.5 and 3.5) obtained from the municipality supply. Animals were housed under standard laboratory conditions, air conditioned and filtered with adequate fresh air supply. Animals were kept in a climate controlled environment.
SEQ ID NO:2 (Biospring) (100 mg) was dissolved in 5 ml saline to form a stock solution of 20 mg/ml. Vehicle (saline) was provided by Pharmaseed as ready to use for i.v. administration. Rivaroxaban (Bayer, Pharmaseed Ltd) dosing solution was diluted at 10 mg/kg (Group 2M). Warfarin (Ceriliant, Pharmaseed Ltd) was diluted at 0.5 mg/kg (Group 3M). Both Rivaroxaban and Warfarin are clinical standards with anticoagulation activity. To obtain SEQ ID NO:2 dosing solution (2.5 mg/ml) for dose level of 5 mg/kg and dose volume of 2 ml/kg for i.v. injection, 0.375 ml of the above 20 mg/ml stock solution was diluted with 2.625 ml of saline (Group 4M). To obtain SEQ ID NO:2 dosing solution (10 mg/ml) for dose level of 20 mg/kg and dose volume of 2 ml/kg for i.v. injection, 1.5 ml of the above 20 mg/ml stock solution was diluted with 1.5 ml saline (Group 5M). To obtain SEQ ID NO:2 dosing solution (20 mg/ml) for dose level of 40 mg/kg and dose volume of 2 ml/kg for i.v. injection, the above 20 mg/ml stock used (Group 6).
Rats were intravenously injected five minutes before bleeding time assay. […] Three treated groups received SEQ ID NO:2 at dose levels of 5, 20 and 40 mg/kg saline solution. In each gender, control groups received saline Vehicle. A positive control group received Rivaroxaban (10 mg/kg). Rivaroxaban was administered by oral gavage 1 hour before bleeding time assay. A second positive control groups received Warfarin (0.5 mg/kg).
Male and female rats were anaesthetized by intraperitoneal injection of ketamine/xylazine. Bleeding time was monitored as described in Stupnisek et al. (2012), until blood flow stopped for a complete 30-sec interval or till the end of 30 min period. In deeply anaesthetized rats (placed in ventral position) the tail was transected with a surgical scalpel 2 mm from the tip (and submerged into a tube with 40 ml of saline at room temperature in vertical position) and the duration and amount of bleeding was measured to evaluate the hemostatic effect of the agents or saline administration. Following the completion of bleeding time evaluation, all rats were immediately sacrificed by CO2 asphyxiation.
Numerical results were given as means±standard errors. If applicable, statistical analysis was carried out using one-way ANOVA followed by Dunnett's Multiple Comparison post Test. A probability of 5% (p≤0.05) was regarded as significant.

[2] = Prothrombin time in arteriovenous shunt model; format: in vivo, Sprague-Dawley male rats; settings: SEQ ID NO:2 33.3 mg/kg i.v. 5 min prior; Rivaroxaban 10 mg/kg p.o. 90 min prior
Description: FIG. 2: Anti-coagulant activity of SEQ ID NO:2 in Arteriovenous Shunt model. Male rats were intravenously injected with saline (Vehicle) or SEQ ID NO:2 solution, according to their body weight. Rivaroxaban was orally administered to the positive control group. 5 to 90 minutes after administration, rats were anesthetized with pentobarbital-na (50 mg/kg). The left jugular vein and the right carotid artery of anesthetized rats were connected with two catheters. The thrombus weight formed on the thread was calculated by subtracting the average weight of the rough nylon thread (A). Prothrombin times were measured (B) and Activated partial thromboplastin times (APTT) were analysed (C). Each bar represents the mean±SEM (n=8 for vehicle and rivaroxaban groups, n=3 for SEQ ID NO:2 group), *p<0.05, **p<0.01, ***p<0.001 vs Vehicle.
The animals were assigned to 3 dosing groups according to the body weight (see table 2). Vehicle treated animals were intravenously injected with saline 90 min prior to shunt assay. The positive control treated animals were orally given Rivaroxaban 10 mg/kg at 90 min prior to shunt assay. SEQ ID NO:2 was intravenously injected 5 min prior to shunt assay.

[3] = Activated partial thromboplastin time (APTT) in arteriovenous shunt model; format: in vivo, Sprague-Dawley male rats; settings: SEQ ID NO:2 33.3 mg/kg i.v. 5 min prior; Rivaroxaban 10 mg/kg p.o. 90 min prior
[4] = Comparable ex vivo APTT study, mouse
[5] = Comparable ex vivo APTT study, canine
[6] = Comparable ex vivo APTT study, non-human primate
[7] = test system: IL-10, TNF, IL-6 and IL-1β in serum; assay: LPS-induced cytokine production model, serum cytokines; format: in vivo, C57BL/6 mice; settings: 2 h after LPS
Description: Female C57BL/6 mice (Taconic Biosciences) were 8 weeks of age at the start of the study. Animals had free access to autoclaved and acidified drinking water. Animals were housed under standard laboratory conditions, air conditioned and filtered with adequate fresh air supply. Animals were kept in a climate controlled environment.
SEQ ID NO:2 (Biospring) (100 mg) was dissolved in 5 ml saline to form a stock solution of 20 mg/ml. Vehicle is saline solution.
Dexamethasone stock was prepared by mixing dexamethasone and beta-cyclodextrin at a 4:96 ratio, solubilized in PBS at 2 mg dexamethasone/mL and stored at −20° C. Dosing solution of dexamethasone was prepared by diluting the stock solution to 1 mg/mL with PBS. Dexamethasone administered at 5 to 10 mg/kg, i.p. is used as a positive control for suppression of the immune response.
Two hours after LPS injection mice were bled and serum was isolated and added to EDTA in Gel Clot Activator tubes. At least 100 μl has been analysed. The concentration of IL-10, TNF, IL-6 and IL-1β in serum was measured using eBioscience's Luminex kit, according to manufacturer's protocol. A single analysis was performed on every sample.

[8] = 25 mg/kg i.v., not statistically significant
[9] = 50 mg/kg i.v., not statistically significant

B1: SEQ ID NO:2: nucleic acid sequence of SEQ ID NO:1 in which each C and U is fluorinated to increase stability in plasma (nucleic acid)
chain: GGGAAUUCGAGCUCGGUACCAACAAUACGACUACACCAUCAAAAGUAUUAUCUUGCAUCGAAGGUUGGCACGUAGCAAGCUCUGCAGUCG
modifications: fluorinated C and U; (6)..(7) uracil is fluorinated; (8)..(8) cytosine is fluorinated; (12)..(12) cytosine is fluorinated; (13)..(13) uracil is fluorinated; (14)..(14) cytosine is fluorinated; (17)..(17) uracil is fluorinated; (19)..(20) cytosine is fluorinated; (23)..(23) cytosine is fluorinated; (26)..(26) uracil is fluorinated; (28)..(28) cytosine is fluorinated; (31)..(31) cytosine is fluorinated; (32)
- anti-coagulation activity relative to clinical care standards (Rivaroxaban and Warfarin) ([1]; all doses (5, 20, 40 mg/kg i.v.), bleeding time): equivalent
- group average bleeding time compared to matched vehicle group ([1]; female rats): increased significantly
- dose response effect on bleeding time ([1]; male rats, 5, 20, 40 mg/kg i.v.): can be observed
- group average bleeding time compared to matched vehicle group ([1]; male rats): increased significantly
- Prothrombin times compared to vehicle group [2]: did not show any significant difference
- Activated Partial Thromboplastin Time (APTT) compared to vehicle group [3]: significant increase
- positive effect on APTT [4]: confirmed
- positive effect on APTT [5]: confirmed
- positive effect on APTT [6]: confirmed
- IL-1β concentration in serum compared to vehicle group ([7]; 5 mg/kg i.v.): similar
- IL-6 concentration in serum compared to vehicle group ([7]; 5 mg/kg i.v.): similar
- TNF concentration in serum compared to vehicle group ([7]; 5 mg/kg i.v.): similar
- serum concentration of IL-10, difference to vehicle group ([7]; 25 mg/kg i.v. 5 min before LPS): significant
- IL-1β concentration in serum compared to vehicle group [7, 8]: lower
- IL-6 concentration in serum compared to vehicle group [7, 8]: lower
- TNF concentration in serum compared to vehicle group [7, 8]: lower
- serum concentration of IL-10, difference to vehicle group ([7]; 50 mg/kg i.v. 5 min before LPS): significant
- reduction in IL-1β concentration in serum compared to vehicle group ([7]; 50 mg/kg i.v.): statistically significant
- IL-6 concentration in serum compared to vehicle group [7, 9]: lower
- TNF concentration in serum compared to vehicle group [7, 9]: lower
- serum concentration of IL-10 compared to vehicle group ([7]; SEQ ID NO:2 groups (5, 25, 50 mg/kg i.v.) 5 min before LPS): increase
